The data set in a line: self-splicing fitness, log relative to wild type (ln ratio); higher = more splicing; Tetrahymena group I intron in knt gene, E. coli kanamycin selection, DiMSum; sequences stand for … in CUCUCU…GGAGGGAAAAGUUAUCAGGCAUGCACCUGGUAGCUAGUCUUUAAACCAAUAGAUUGCAUCGGUUUAAAAGGCAAGACCGUCAAAUUGCGGGAAAGGGGUCAACAGCCGUUCAGUACCAAGUCUCAGGGGAAACUUUGAGAUGGCCUUGCAAAGGGUAUGGUAAUAAGCUGACGGACAUGGUCCUAACCACGCAGCCAAGUCCUAAGUCAACAGAUCUUCUGUUGAUAUGGAUGCAGUUCACAGACUAAAUGUCGGUCGGGGAAGAUGUAUUCUUCUCAUAAGAUAUAGUCGGACCUCUCCUUAAUGGGAGCUAGCGGAUGAAGUGAUGCAACACUGGAGCCGCUGGGAACUAAUUUGUAUGCGAAAGUAUAUUGAUUAGUUUUGGAGUACUCGUGGUCG
The procedure, abridged: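 Library with all eight P1ex-region intron nucleotides randomised, intron inside the knt kanamycin-resistance gene on pET-22b(+), in E. coli BL21(DE3). Cells grew overnight at 37°C or 30°C on LB agar with or without 25 μg/mL kanamycin (plus 100 μg/mL carbenicillin, 50 μM IPTG, 0.2% rhamnose), in six replicate transformations. Pooled colonies were amplicon-sequenced on Illumina HiSeq 2500. DiMSum fitness is the error-weighted combination of wild-type-normalised replicate fold changes, kanamycin versus none.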

± gives the uncertainty stated by the source.

As for CGAUAGCAAUAUUACGCUAG, the “self-splicing fitness (ln)” value was -1.18 ± 0.1 (30 °C) and -1.52 ± 0.19 (37 °C).

For the sequence CGAUAGCAAUAUUACGCUGA, the “self-splicing fitness (ln)” value was -2.46 ± 0.17 (30 °C) and -1.59 ± 0.16 (37 °C). As for CGAUAGCAAUAUUACGGAGG, the “self-splicing fitness (ln)” value reads like this: (30 °C) -1.28 ± 0.14; (37 °C) -1.17 ± 0.15.

As for CGAUAGCAAUAUUACGGAUG, the “self-splicing fitness (ln)” value by setting is: (30 °C) -0.777 ± 0.058; (37 °C) 0.18 ± 0.07. Consider CGAUAGCAAUAUUACGGCGA, for which the “self-splicing fitness (ln)” value runs as follows: (30 °C) -1.5 ± 0.25; (37 °C) -1.11 ± 0.16. With CGAUAGCAAUAUUACGGGAU, the “self-splicing fitness (ln)” value was -4.23 ± 0.31 (30 °C) and -2.86 ± 0.27 (37 °C).

For CGAUAGCAAUAUUACGGGUC, the “self-splicing fitness (ln)” value by setting is: (30 °C) -4.07 ± 0.46; (37 °C) -2.46 ± 0.3. Taken in the same sequence, the figures for CGAUAGCAAUAUUACGGUCU were -0.529 ± 0.072 and 0.511 ± 0.097. Regarding CGAUAGCAAUAUUACGGUGU, the “self-splicing fitness (ln)” value (30 °C) was -2.7 ± 0.11 and the “self-splicing fitness (ln)” value (37 °C) is -1.06 ± 0.095. Turning to CGAUAGCAAUAUUACGUACU, the “self-splicing fitness (ln)” value was -1.12 ± 0.081 (30 °C) and -0.791 ± 0.12 (37 °C). In the same order, the values of CGAUAGCAAUAUUACGUAGU are -3.93 ± 0.18 and -1.06 ± 0.1. On to CGAUAGCAAUAUUACGUAUC, for which, for the setting “30 °C”, the “self-splicing fitness (ln)” value is -3.4 ± 0.3.

Take CGAUAGCAAUAUUACGUCGG: the “self-splicing fitness (ln)” value was -1.16 ± 0.11 (30 °C) and -0.171 ± 0.11 (37 °C). For the sequence CGAUAGCAAUAUUACGUGAU, the “self-splicing fitness (ln)” value runs as follows: (30 °C) -3.02 ± 0.1; (37 °C) -0.808 ± 0.088. As for CGAUAGCAAUAUUACGUGGG, the “self-splicing fitness (ln)” value runs as follows: (30 °C) -2.61 ± 0.17; (37 °C) -0.763 ± 0.16. In the same order, the values of CGAUAGCAAUAUUACGUUGU are -3.45 ± 0.15 and -2.61 ± 0.21. In the case of CGAUAGCAAUAUUACGUUUC, the “self-splicing fitness (ln)” value (37 °C) was -2.12 ± 0.15. Take CGCAAGCAAUAUUACGAAAG: the “self-splicing fitness (ln)” value reads like this: (30 °C) -0.888 ± 0.071; (37 °C) -1.12 ± 0.093. In the case of CGCAAGCAAUAUUACGAACG, the “self-splicing fitness (ln)” value (30 °C) was -1.23 ± 0.1 and the “self-splicing fitness (ln)” value (37 °C) is -1.03 ± 0.14. Regarding CGCAAGCAAUAUUACGAAGU, the “self-splicing fitness (ln)” value (30 °C) was -4.42 ± 0.36 and the “self-splicing fitness (ln)” value (37 °C) was -0.741 ± 0.15. Taken in the same sequence, the figures for CGCAAGCAAUAUUACGACAU were -2.999 ± 0.017 and -1.77 ± 0.034. For CGCAAGCAAUAUUACGAGAG, the “self-splicing fitness (ln)” value reads like this: (30 °C) -2.52 ± 0.1; (37 °C) -2.24 ± 0.15. As for CGCAAGCAAUAUUACGAGCA, the “self-splicing fitness (ln)” value reads like this: (30 °C) -0.102 ± 0.1; (37 °C) 0.368 ± 0.14. For the sequence CGCAAGCAAUAUUACGAGUC, the “self-splicing fitness (ln)” value is -3.43 ± 0.13 (30 °C) and -2.97 ± 0.19 (37 °C).

Take CGCAAGCAAUAUUACGAUCU: the “self-splicing fitness (ln)” value runs as follows: (30 °C) -1.61 ± 0.073; (37 °C) -0.39 ± 0.085. In the case of CGCAAGCAAUAUUACGCAAC, the “self-splicing fitness (ln)” value is -3.19 ± 0.36 (30 °C) and -3.11 ± 0.37 (37 °C). As for CGCAAGCAAUAUUACGCACC, the “self-splicing fitness (ln)” value is, setting by setting: (30 °C) -1.54 ± 0.29; (37 °C) -0.0713 ± 0.4. Turning to CGCAAGCAAUAUUACGCAGU, the “self-splicing fitness (ln)” value is, setting by setting: (30 °C) -3.23 ± 0.17; (37 °C) -2.62 ± 0.21. For CGCAAGCAAUAUUACGCCCG, the “self-splicing fitness (ln)” value runs as follows: (30 °C) -1.22 ± 0.21; (37 °C) -1.93 ± 0.31. As for CGCAAGCAAUAUUACGCGAA, the “self-splicing fitness (ln)” value reads like this: (30 °C) -3.58 ± 0.16; (37 °C) -1.87 ± 0.13.

Regarding CGCAAGCAAUAUUACGCUAC, the “self-splicing fitness (ln)” value (37 °C) is -2.82 ± 0.48. For CGCAAGCAAUAUUACGGAAU, the “self-splicing fitness (ln)” value runs as follows: (30 °C) -3.63 ± 0.15; (37 °C) -2.77 ± 0.18. Regarding CGCAAGCAAUAUUACGGACA, the “self-splicing fitness (ln)” value was -0.905 ± 0.14 (30 °C) and -0.195 ± 0.14 (37 °C). Take CGCAAGCAAUAUUACGGCGG: the “self-splicing fitness (ln)” value runs as follows: (30 °C) -0.329 ± 0.073; (37 °C) 0.31 ± 0.09. Taken in the same sequence, the figures for CGCAAGCAAUAUUACGUAAC were -3.76 ± 0.23 and -2.31 ± 0.19. In the case of CGCAAGCAAUAUUACGUAUC, the “self-splicing fitness (ln)” value was -3.14 ± 0.13 (30 °C) and -2.33 ± 0.19 (37 °C). Taken in the same sequence, the figures for CGCAAGCAAUAUUACGUCAC were -3.45 ± 0.21 and -2.12 ± 0.23.

On to CGCAAGCAAUAUUACGUGAC, for which the “self-splicing fitness (ln)” value is -2.74 ± 0.2 (30 °C) and -2.5 ± 0.3 (37 °C). On to CGCAAGCAAUAUUACGUUCA, for which the “self-splicing fitness (ln)” value was -1.33 ± 0.1 (30 °C) and -0.636 ± 0.098 (37 °C). In the case of CGCCAGCAAUAUUACGAACA, the “self-splicing fitness (ln)” value (30 °C) is -3.55 ± 0.26 and the “self-splicing fitness (ln)” value (37 °C) was -0.716 ± 0.11. Take CGCCAGCAAUAUUACGAUUA: the “self-splicing fitness (ln)” value was -2.37 ± 0.15 (30 °C) and -2.68 ± 0.21 (37 °C). With CGCCAGCAAUAUUACGCAAC, the “self-splicing fitness (ln)” value reads like this: (30 °C) -3.25 ± 0.27; (37 °C) -3.44 ± 0.42. Taken in the same sequence, the figures for CGCCAGCAAUAUUACGCACG were -1.66 ± 0.11 and -1.47 ± 0.17. Consider CGCCAGCAAUAUUACGCAGC, for which the “self-splicing fitness (ln)” value was -2.96 ± 0.34 (30 °C) and -2.4 ± 0.38 (37 °C).

Turning to CGCCAGCAAUAUUACGCAGG, the “self-splicing fitness (ln)” value was -2.06 ± 0.2 (30 °C) and -2.56 ± 0.26 (37 °C). Consider CGCCAGCAAUAUUACGCCCU, for which the “self-splicing fitness (ln)” value was -1.93 ± 0.14 (30 °C) and -0.637 ± 0.13 (37 °C). On to CGCCAGCAAUAUUACGCGUC, for which the “self-splicing fitness (ln)” value (30 °C) is -3.41 ± 0.17 and the “self-splicing fitness (ln)” value (37 °C) was -2.33 ± 0.15.

On to CGCCAGCAAUAUUACGGAGU, for which the “self-splicing fitness (ln)” value runs as follows: (30 °C) -3.79 ± 0.12; (37 °C) -2.7 ± 0.13. Consider CGCCAGCAAUAUUACGGCCA, for which the “self-splicing fitness (ln)” value (30 °C) was -0.294 ± 0.11 and the “self-splicing fitness (ln)” value (37 °C) is 0.0865 ± 0.13. Taken in the same sequence, the figures for CGCCAGCAAUAUUACGGGCU were -3.79 ± 0.18 and -2.04 ± 0.12. CGCCAGCAAUAUUACGUACU: the “self-splicing fitness (ln)” value runs as follows: (30 °C) -2.58 ± 0.16; (37 °C) -2.02 ± 0.2. In the same order, the values of CGCCAGCAAUAUUACGUGUU are -3.08 ± 0.14 and -3.21 ± 0.18.

CGCGAGCAAUAUUACGAAGA: the “self-splicing fitness (ln)” value (37 °C) is -0.985 ± 0.39. For CGCGAGCAAUAUUACGAGCU, the “self-splicing fitness (ln)” value is, setting by setting: (30 °C) -3.72 ± 0.37; (37 °C) -2.22 ± 0.27. As to CGCGAGCAAUAUUACGAGUG, the “self-splicing fitness (ln)” value reads like this: (30 °C) -3.46 ± 0.31; (37 °C) -1.78 ± 0.2. In the case of CGCGAGCAAUAUUACGAGUU, the “self-splicing fitness (ln)” value reads like this: (30 °C) -3.3 ± 0.2; (37 °C) -3.19 ± 0.26. As for CGCGAGCAAUAUUACGAUCA, the “self-splicing fitness (ln)” value reads like this: (30 °C) -2.91 ± 0.19; (37 °C) -2.04 ± 0.16. CGCGAGCAAUAUUACGCAAA: the “self-splicing fitness (ln)” value was -2.95 ± 0.38 (30 °C) and -3.4 ± 0.43 (37 °C). As for CGCGAGCAAUAUUACGCACA, the “self-splicing fitness (ln)” value by setting is: (30 °C) -2.3 ± 0.19; (37 °C) -1.16 ± 0.18. On to CGCGAGCAAUAUUACGCCAC, for which the “self-splicing fitness (ln)” value (30 °C) is -3.41 ± 0.47. Turning to CGCGAGCAAUAUUACGCCAU, the “self-splicing fitness (ln)” value is, setting by setting: (30 °C) -3.53 ± 0.24; (37 °C) -3.92 ± 0.42.

For the origin of these results see the supplement of paper PMC7877785.
